From PMC10421103, “Efficiency Assessment between Entrapment and Covalent Bond Immobilization of Mutant β-Xylosidase onto Chitosan Support” (Polymers, 2023)

Substrate: O=[N+]([O-])c1ccc(O[C@@H]2OC[C@@H](O)[C@H](O)[C@H]2O)cc1
Test: purified protein
Assay type: biochemical, Geobacillus stearothermophilus
Conditions: free enzyme, partially purified, 200 mM citrate-phosphate-glycine buffer pH 6.5, 50 °C, 0.22–2.00 mM substrate

B1: XynB2^Y509E (Geobacillus stearothermophilus; Y509E) (protein)
chain: MATNLFFNAHHSPVGAFASFTLGFPGKSGGLDLELARPPRQNVFIGVESPHEPGLYHILPFAETAGEDESKRYDIENPDPNPQKPNILIPFAKERIEREFRVATDTWKAGDLTLTIYSPVKAVPDPETASEEELKLALVPAVIVEMTIDNTNGTRTRRAFFGFEGTDPYTSMRRIDDTCPQLRGVGQGRILGIASKDEGVRSALHFSMEDILTATLEENWTFGLGKVGALIADVPAGEKKTYQFAVCFYRGGCVTAGMDASYFYTRFFHNIEEVGLYALEQAEVLKEQAFRSNELIEKEWLSDDQKFMMAHAIRSYYGNTQLLEHEGKPIWVVNEGEYRMMNTFDLTVDQLFFELKMNPWTVKNVLDFYVERYSYEDRVRFPGDETEYPGGISFTHDMGVANTFSRPHYSSYELYGISGCFSHMTHEQLVNWVLCAAVYIEQTKDWAWRDRRLTILEQCLESMVRRDHPDPEKRNGVMGLDSTRTMGGAEITTYDSLDVSLGQARNNLELAGKCWAAYVALEKLFRDVGKEELAALAREQAEKCAATIVSHVTEDGYIPAVMGEGNDSKIIPAIEGLVFPYFTNCHEALREDGRFGDYIRALRQHLQYVLREGICLFPDGGWKISSTSNNSWLSKIYLCQFIARRILGWEWDEQGKRADAAHVAWLTHPTLSIWSWSDQIIAGEISGSKYYPRGVTSILWLEEGE
notes: recombinant in E. coli C43 from plasmid pJAVI100 (xynB2 with Y509E); partially purified by heat treatment 45 °C and dialysis; GH52
Question: With B1 as the protein, how does the Km read?
Answer: Its Km is 900 ± 100 µM.

Question: What about the Vmax of the same protein?
Answer: Its Vmax is 0.0011 µmol/min.
